Measured values taken from the RNAGym collection of RNA variant scans (doi:10.7554/elife.80360).

B1: CPEB3 Ribozyme (parent)
chain: GGGGGCCACAGCAGAAGCGUUCACGUCGCGGCCCCUGUCAGAUUCUGGUGAAUCUGCGAAUUCUGCUGU

Variants of: B1
Assay: self-cleavage, relative activity (ratio to wild type); higher = more cleavage; co-transcriptional

Variant | self-cleavage
GGGGGCCACAGCAGAAGCGUUCACGUCGCGGCCCCUGUCAGAUGCUGGUGAAUCUGCGAAUUGUGCUGU | 0.588
GGGGGCCACAGCAGAAGCGUUCACGUCGCGGCCCCUGUCAGAUGCUGGAGAAUCUGCGAAUUCUGCUGU | 0.935
GGGGGCCACAGCAGAAGCGUUCACGUCGCGGCCCCUGUCAGAUGCUGGCGAAUCUGCGAAUUCUGCUGU | 0.901
GGGGGCCACAGCAGAAGCGUUCACGUCGCGGCCCCUGUCAGAUCCUGGUGAAUCUGCGAAUUCUUCUGU | 0.488
GGGGGCCACAGCAGAAGCGUUCACGUCGCGGCCCCUGUCAGAUCCUGGUGAAUCUGCGAAUUCUACUGU | 0.519
GGGGGCCACAGCAGAAGCGUUCACGUCGCGGCCCCUGUCAGAUGCUGGUGAAUCUGGGAAUUCUGCUGU | 0.335
GGGGGCCACAGCAGAAGCGUUCACGUCGCGGCCCCUGUCAGAUGCUGGUGAAUCUGAGAAUUCUGCUGU | 0.327
GGGGGCCACAGCAGAAGCGUUCACGUCGCGGCCCCUGUCAGAUGCUGGUGAAUCUGUGAAUUCUGCUGU | 0.23
GGGGGCCACAGCAGAAGCGUUCACGUCGCGGCCCCUGUCAGAUCCUGGUGAAUCUGCGAAUACUGCUGU | 0.728
GGGGGCCACAGCAGAAGCGUUCACGUCGCGGCCCCUGUCAGAUGCUGGUGAAUCAGCGAAUUCUGCUGU | 0.432
GGGGGCCACAGCAGAAGCGUUCACGUCGCGGCCCCUGUCAGAUGCUGGUGAAUCGGCGAAUUCUGCUGU | 0.574
GGGGGCCACAGCAGAAGCGUUCACGUCGCGGCCCCUGUCAGAUCCUGGUGAAUCGGCGAAUUCUGCUGU | 0.372
GGGGGCCACAGCAGAAGCGUUCACGUCGCGGCCCCUGUCAGAUUAUGGUGUAUCUGCGAAUUCUGCUGU | 0.931
GGGGGCCACAGCAGAAGCGUUCACGUCGCGGCCCCUGUCAGAUGCUGGUGAAUCUGCGCAUUCUGCUGU | 0.629
GGGGGCCACAGCAGAAGCGUUCACGUCGCGGCCCCUGUCAGAUCCUGGUGAAUCUGCGAAUUCCGCUGU | 0.565
GGGGGCCACAGCAGAAGCGUUCACGUCGCGGCCCCUGUCAGAUGCUGAUGAAUCUGCGAAUUCUGCUGU | 0.963
GGGGGCCACAGCAGAAGCGUUCACGUCGCGGCCCCUGUCAGAUGCUGUUGAAUCUGCGAAUUCUGCUGU | 0.986
GGGGGCCACAGCAGAAGCGUUCACGUCGCGGCCCCUGUCAGAUGCUGGUGAAGCUGCGAAUUCUGCUGU | 0.755
GGGGGCCACAGCAGAAGCGUUCACGUCGCGGCCCCUGUCAGAUCCGGGUGAAUCUGCGAAUUCUGCUGU | 0.98
GGGGGCCACAGCAGAAGCGUUCACGUCGCGGCCCCUGUCAGAUGGUGGUGAAUCUGCGAAUUCUGCUGU | 0.855

Variant | self-cleavage
GGGGGCCACAGCAGAAGCGUUCACGUCGCGGCCCCUGUCAGAUGUUGGUGAAUCUGCGAAUUCUGCUGU | 0.945
GGGGGCCACAGCAGAAGCGUUCACGUCGCGGCCCCUGUCAGAUGCUGGUGAAUCUGCGAAUUCUGAUGU | 0.733
GGGGGCCACAGCAGAAGCGUUCACGUCGCGGCCCCUGUCAGAUGCUGGUAAAUCUGCGAAUUCUGCUGU | 1
GGGGGCCACAGCAGAAGCGUUCACGUCGCGGCCCCUGUCAGAUCCUGGUAAAUCUGCGAAUUCUGCUGU | 0.939
GGGGGCCACAGCAGAAGCGUUCACGUCGCGGCCCCUGUCAGAUCCUGGUGAAUCUGCGAAUUCUGCCGU | 0.937
GGGGGCCACAGCAGAAGCGUUCACGUCGCGGCCCCUGUCAGAUGCUGGUGAAUCUGCGAAUUCAGCUGU | 0.662
GGGGGCCACAGCAGAAGCGUUCACGUCGCGGCCCCUGUCAGAUGCUGGUGAAUCUCCGAAUUCUGCUGU | 0.44
GGGGGCCACAGCAGAAGCGUUCACGUCGCGGCCCCUGUCAGAUGCUGGUGAAUCUACGAAUUCUGCUGU | 0.822
GGGGGCCACAGCAGAAGCGUUCACGUCGCGGCCCCUGUCAGAUCCUCGUGAAUCUGCGAAUUCUGCUGU | 0.963
GGGGGCCACAGCAGAAGCGUUCACGUCGCGGCCCCUGUCAGAUCCUGGUGAAUCUGCGAAGUCUGCUGU | 0.49
GGGGGCCACAGCAGAAGCGUUCACGUCGCGGCCCCUGUCAGAUCCUGGUGAAUCUGCGAAAUCUGCUGU | 0.801
GGGGGCCACAGCAGAAGCGUUCACGUCGCGGCCCCUGUCAGAUGCUGGUGAAUCUGCGAAAUCUGCUGU | 0.808
GGGGGCCACAGCAGAAGCGUUCACGUCGCGGCCCCUGUCAGAUGCUGGUGAAUCUGCGAAUGCUGCUGU | 0.777
GGGGGCCACAGCAGAAGCGUUCACGUCGCGGCCCCUGUCAGAUGCUGGUGAAUCUGCGAAUACUGCUGU | 0.908
GGGGGCCACAGCAGAAGCGUUCACGUCGCGGCCCCUGUCAGAUGCUGGUGAAUAUGCGAAUUCUGCUGU | 0.596
GGGGGCCACAGCAGAAGCGUUCACGUCGCGGCCCCUGUCAGAUCCUGGUGAAUCUGCGAAUUAUGCUGU | 0.542
GGGGGCCACAGCAGAAGCGUUCACGUCGCGGCCCCUGUCAGAUGCUGGUGACUCUGCGAAUUCUGCUGU | 0.976
GGGGGCCACAGCAGAAGCGUUCACGUCGCGGCCCCUGUCAGAUCCUGGUGAAUCUGCGAAUUCUGCUUU | 0.987
GGGGGCCACAGCAGAAGCGUUCACGUCGCGGCCCCUGUCAGAUCCUGGUGAAUCUACGAAUUCUGCUGU | 0.7
